From US20110135639A1 (Human Genome Sciences, published 2011)

What was measured:
[1] = target: T1, membrane-bound form of Neutrokine-alpha (human, UniProt Q9Y275 1-285); assay: binding to THP-1 cells
T1 construct: also called Neutrokine-alpha on the surface of THP-1 cells; cell surface Neutrokine-alpha

[2] = target: T2, soluble form of Neutrokine-alpha (amino acids 134 to 285 of SEQ ID NO:2) (human, UniProt Q9Y275 134-285); assay: capture of Neutrokine-alpha from solution
T2 construct: also called rNeutrokine-alpha; BLyS
T2 sequence (Q9Y275 134-285): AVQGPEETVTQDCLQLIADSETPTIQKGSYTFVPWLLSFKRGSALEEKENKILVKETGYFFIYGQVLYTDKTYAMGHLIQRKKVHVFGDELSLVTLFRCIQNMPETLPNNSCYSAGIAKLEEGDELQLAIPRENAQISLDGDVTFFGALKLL

[3] = target: T3, peptide comprising amino acid residues Val-227 to Asn-242 of SEQ ID NO:2 (human); assay: epitope mapping with peptide
T3 peptide: VTLFRCIQNMPETLPN

Measured: binding result

T1 sequence (Q9Y275 whole entry): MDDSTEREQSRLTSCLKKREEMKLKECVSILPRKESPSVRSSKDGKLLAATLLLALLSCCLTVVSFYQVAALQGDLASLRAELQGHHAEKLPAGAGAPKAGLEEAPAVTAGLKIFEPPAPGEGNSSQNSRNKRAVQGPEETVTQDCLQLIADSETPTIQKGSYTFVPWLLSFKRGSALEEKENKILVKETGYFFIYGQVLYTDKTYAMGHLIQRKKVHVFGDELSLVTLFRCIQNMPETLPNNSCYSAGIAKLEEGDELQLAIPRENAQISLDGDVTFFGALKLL

B1: murine monoclonal antibody 15C10 (antibody, V domains shown)
VH: QVQLQQSGAELARPGASVKMSCRASGYTFTTYTMHWVKQRPGQGLEWIGYIIPRNTYTTFNQKFKNKATLTADKSSNTAYMQLSSLTSEDSAVYYCARHYGGGYWFFDVWGAGTTVTVSS
VL: ELVMTQTPASLAVSLGQRATISCRGSESVDSYGNSFMHWYQQKPGQPPKLLIYRASNLESGIPARFSGSGSRTDFTLTIYPVEADDVATYYCQQSNDDPMYTFGGGTKLEIKR
notes: A chimeric form with human IgG1 and kappa constant regions also exists (PTA-3794); also called hybridoma ATCC PTA-1158
binds: all assays above
